Ends that are not written are not given here.
Molecular target: PICK PDZ-BAR construct
Assay: FP

PICK PDZ-BAR construct, sequence (chain, as listed by the source): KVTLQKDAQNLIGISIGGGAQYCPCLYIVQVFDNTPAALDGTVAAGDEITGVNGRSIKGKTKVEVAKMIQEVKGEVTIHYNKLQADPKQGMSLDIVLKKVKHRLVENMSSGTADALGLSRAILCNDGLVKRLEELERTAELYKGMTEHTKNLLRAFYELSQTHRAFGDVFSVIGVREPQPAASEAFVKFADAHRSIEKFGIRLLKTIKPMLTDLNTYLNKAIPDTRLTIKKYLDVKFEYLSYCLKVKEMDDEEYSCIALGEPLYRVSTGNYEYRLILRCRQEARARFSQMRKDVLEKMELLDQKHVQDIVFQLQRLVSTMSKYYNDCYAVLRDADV

B1: GluR2 peptide (competitor in the fluorescence polarization assay) (peptide)
chain: VYGIESVKI-OH
IC50: 15.3 µM
